Measurements from patent US20190083587A1 (Novo Nordisk, published 2019).
Substitutions are numbered along the chain they refer to. Numbers in names are those of the source. Blank lines part the entries; values can stand above or below the binder they belong to.

Columns and labels:
[1] = molecular target: T1, hTLT-1 ECD-HPC4 S119A (human, UniProt Q86YW5 16-162); assay: SPR ProteOn, mAb captured by anti-hFc, 100 nM mutant, signal 10 s after injection
T1 construct: Built as m17; also called Ala mutant 33
T1 chain: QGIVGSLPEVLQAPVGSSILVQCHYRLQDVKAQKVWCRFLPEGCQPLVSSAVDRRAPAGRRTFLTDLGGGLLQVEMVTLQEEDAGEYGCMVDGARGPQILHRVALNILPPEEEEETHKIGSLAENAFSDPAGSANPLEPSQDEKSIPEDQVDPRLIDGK
Method: (§1) Each antibody was diluted in 10 mM sodium acetate pH 5.0 to a concentration of 50 μg/ml, and was immobilized to an individual flow cell at 30 μl/min for 240 s. The antibodies were immobilized to flow cells A1-A6 (horizontal direction). After immobilization, the active sites on the flow cell were blocked with 1 M ethanolamine. The final immobilization level of capture antibody typically ranged from approximately 9,000 to 10,000 RU in one experiment. Capture of the anti-TLT-1 antibodies mAb0023, mAb0051, mAb0061 and mAb0062 was conducted by diluting to 0.5 μg/ml into HBS-EP buffer (10 mM HEPES, 150 mM NaCl, 3 mM EDTA, 0.05% surfactant P20, pH 7.4) and injected at 30 μl/min for 60 s in vertical direction, creating interspot reference points with only anti-human Fc antibodies.
(§2) The final capture level of test antibodies typically ranged from approximately 200 to 300 RU in one experiment. Binding of wt or Ala mutant hTLT-1 ECD-HPC4 protein was conducted by injecting over parallel flow cells in horizontal direction to allow for comparative analyses of binding to different captured anti-TLT-1 antibodies relative to binding to the interspot references. Each hTLT-1 ECD-HPC4 protein was diluted to 100 nM, based on the calculated average Mw, into HBS-EP buffer and injected at 30 μl/min for 240 s. The GLM chip was regenerated after each injection cycle of analyte via one 18 s injection of 1 M Formic acid followed by a 18s injection of 50 mM NaOH at 100 μl/min. This regeneration step removed the anti-TLT-1 antibody and any bound TLT-1 from the immobilized capture antibody surface, and allowed for the subsequent binding of the next test sample pair.
(§3) Data analysis was performed using the ProteOn Manager™ Software. No significant non-specific binding to the interspot control surfaces was observed. Binding curves were processed by double referencing (subtraction of interspot control surface signals as well as blank buffer injections over captured anti-TLT-1 antibodies). This allowed correction for instrument noise, bulk shift and drift during sample injections. Binding signal at 10 s after stop of analyte injection was normalized to level of captured anti-TLT-1 antibody and presented as binding relative to wt hTLT-1 ECD-HPC4 protein.

[2] = molecular target: T2, hTLT-1 ECD-HPC4 R117A (human, UniProt Q86YW5 16-162); assay: as above
T2 construct: Built as m17; also called Ala mutant 32
T2 chain: T1 chain with R102A, A104S
Method: as §1, §2, §3

[3] = molecular target: T3, hTLT-1 ECD-HPC4 M91A (human, UniProt Q86YW5 16-162); assay: as above
T3 construct: Built as m17; also called Ala mutant 24
T3 chain: T1 chain with M76A, A104S
Method: as §1, §2, §3

[4] = molecular target: T4, hTLT-1 ECD-HPC4 F54A (human, UniProt Q86YW5 16-162); assay: as above
T4 construct: Built as m17; also called Ala mutant 12
T4 chain: T1 chain with F39A, A104S
Method: as §1, §2, §3

[5] = molecular target: T5, hTLT-1 ECD-His (human, UniProt Q86YW5 16-162); assay: SPR Biacore, mAb immobilised directly, TLT-1 as analyte
T5 construct: Extracellular domain of human TLT-1 with C-terminal His-6 tag; the range 16-168 is computed from these; also called TLT-1-His; His tagged human TLT1
T5 sequence: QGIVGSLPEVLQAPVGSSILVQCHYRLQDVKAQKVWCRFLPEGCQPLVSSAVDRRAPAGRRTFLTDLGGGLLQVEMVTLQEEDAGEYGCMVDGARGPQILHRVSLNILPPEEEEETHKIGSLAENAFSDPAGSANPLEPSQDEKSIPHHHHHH
Method: Method: The mAbs of interest were either immobilized directly to a CM5 chip or by capture via a human Fc capture mAb immobilized to a CM5 chip, while TLT-1-His was immobilized by capture via an anti-His mAb CM5 chip for analysis of Fabs.
mAb direct capture: The TLT-1 mAbs were immobilised to a level of approx 500-1000 RU on a CM5 chip (50 μg/ml diluted in Na-acetate, pH 4.0) using the standard procedure recommended by the supplier. Two-fold dilutions of TLT-1 from 200 nM to 0.2 nM were tested for binding to the mAbs. Running and dilution buffer: 10 mM HEPES, 150 mM, 0.005% p20, pH 7.4. Regeneration was obtained by 10 mM Glycine, pH 1.7. mAb capture via human Fc mAb: Human Fc mAb was immobilised to approx 10.000 RU. The mAb of interest was added (approx 100 nM). Two-fold dilutions of TLT-1 from 200 nM to 0.2 nM were tested. Running and dilution buffer: 10 mM HEPES, 150 mM, 0.005% p20, pH 7.4. Regeneration was obtained in 3 M MgCl₂.

[6] = molecular target: T6, hTLT-1 ECD-HPC4 L42A (human, UniProt Q86YW5 16-162); assay: SPR ProteOn, mAb captured by anti-hFc, 100 nM mutant, signal 10 s after injection
T6 construct: Built as m17; also called Ala mutant 8
T6 chain: T1 chain with L27A, A104S
Method: as §1, §2, §3

[7] = molecular target: T7, hTLT-1 ECD-HPC4 H116A (human, UniProt Q86YW5 16-162); assay: as above
T7 construct: Built as m17; also called Ala mutant 31
T7 chain: T1 chain with H101A, A104S
Method: as §1, §2, §3

[8] = molecular target: T8, hTLT-1 ECD-HPC4 R110A (human, UniProt Q86YW5 16-162); assay: as above
T8 construct: Built as m17; also called Ala mutant 30
T8 chain: T1 chain with R95A, A104S
Method: as §1, §2, §3

[9] = molecular target: T9, hTLT-1 ECD-HPC4 Q43A (human, UniProt Q86YW5 16-162); assay: as above
T9 construct: Built as m17; also called Ala mutant 9
T9 chain: T1 chain with Q28A, A104S
Method: as §1, §2, §3

[10] = molecular target: T10, hTLT-1 ECD-HPC4 R41A (human, UniProt Q86YW5 16-162); assay: as above
T10 construct: Built as m17; also called Ala mutant 7
T10 chain: T1 chain with R26A, A104S
Method: as §1, §2, §3

[11] = molecular target: T11, human TLT-1 on activated platelets (human, UniProt Q86YW5 16-311); assay: cell-based or functional assay
T11 sequence: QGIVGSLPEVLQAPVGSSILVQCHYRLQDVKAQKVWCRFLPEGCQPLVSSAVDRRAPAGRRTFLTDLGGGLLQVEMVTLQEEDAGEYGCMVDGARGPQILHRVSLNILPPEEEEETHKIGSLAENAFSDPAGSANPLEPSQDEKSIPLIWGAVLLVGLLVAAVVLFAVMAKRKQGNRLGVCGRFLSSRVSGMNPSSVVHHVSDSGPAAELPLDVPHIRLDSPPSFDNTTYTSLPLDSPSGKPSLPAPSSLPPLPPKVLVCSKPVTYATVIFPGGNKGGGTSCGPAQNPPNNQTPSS

binding relative to wt hTLT-1 ECD-HPC4 [1]: < 0.6 fraction of wt | binding relative to wt hTLT-1 ECD-HPC4 [2]: < 0.2 fraction of wt | binding relative to wt hTLT-1 ECD-HPC4 [3]: < 0.2 fraction of wt | binding relative to wt hTLT-1 ECD-HPC4 [4]: < 0.4 fraction of wt | Kd [5]: 19.3 nM | koff [5]: 0.00472 s⁻¹ | kon [5]: 245000 M⁻¹ s⁻¹
B1: mAb0051 (antibody, V domains shown)
VH: QVQLEQSGAELVRPGVSVKISCKGSGYTFTDYSMHWVKQSHAKSLEWIGVISTYYGDVRYNQKFKGKATMTVDKSSSTAYMALARLTSEDSAIYYCARAPMITTGAWFAYWGQGTLVTVSA
VL: SIVMTQTPKFLLVSAGDRVTITCKASQSVSNDVAWYQQKPGQSPKLLINYASSRYTGIPDRFTGSGYGTDFTFTISTVQAEDLAVYFCQQDYSSPYTFGGGTKLEIER
notes: Mouse VH/VL, human IgG4 / kappa; The entries seem to include signal peptides; also called antiTLT-1 0051mab

binding relative to wt hTLT-1 ECD-HPC4 [6]: < 0.6 fraction of wt | binding relative to wt hTLT-1 ECD-HPC4 [7]: < 0.6 fraction of wt | binding relative to wt hTLT-1 ECD-HPC4 [8]: < 0.2 fraction of wt | binding relative to wt hTLT-1 ECD-HPC4 [9]: < 0.4 fraction of wt | binding relative to wt hTLT-1 ECD-HPC4 [3]: < 0.4 fraction of wt | binding relative to wt hTLT-1 ECD-HPC4 [10]: < 0.2 fraction of wt | binding relative to wt hTLT-1 ECD-HPC4 [4]: < 0.6 fraction of wt | Kd [5]: 4.12 nM | koff [5]: 0.00134 s⁻¹ | kon [5]: 326000 M⁻¹ s⁻¹
B2: mAb0062 (antibody, V domains shown)
VH: QVQLQQSGAEPMKPGASVKISCKATGYTFSSHWIEWIKQRPGHGLEWIGEILPGSGNTNYNEKFKGKATFTADTSSNTAYMQLSSLTSEDSAVYYCARGYYGLNYDWYFDVWGAGTTVTVSS
VL: DIQMTQTTSSLSASLGDRVTISCRASQDISNYLNWYQQKPDGTVKLLIFYTSRLHSGVPSRFSGSGSGTDYSLTISNLEPEDIATYYCQQDTKLPYTFGGGTKLEMKR
notes: Mouse VH/VL, human IgG4 / kappa; variant of mAb0052 (HC C91Y, Kabat); The entries seem to include signal peptides; also called antiTLT-1 0062mab; (0052HC.C91Y)2

peak thrombin generation at 25 nM, haemophilia A like platelet rich plasma [11]: ~4 fold compared to rFVIIa (25 nM)
B3: FVIIa-Fab1001 (other)
heavy: EVKLLESGGGLVQPGGSLKLSCAASGFDFSRYWMTWVRQAPGKGLEWIGEINPDSSTINYNPSLKDKFIISRDNAKNTLYLQMSEVRSEDTALYYCASGVFTSWGQGTLVTVSAASTKGPSVFPLAPCSRSTSESTAALGCLVKDYFPEPVTVSWNSGALTSGVHTFPAVLQSSGLYSLSSVVTVPSSSLGTKTYTCNVDHKPSNTKVDKRVESKYGPPC
light: DVVMTQTPLSLPVSLGDQASISCRSSQSLVHRNGNTYFHWALQKPGQSPKLLIYKVSNRFSGVPDRFSGSGSGTDFTLKISRVEAEDLGVYFCSQSTHVPYTFGGGTKLEIKRTVAAPSVFIFPPSDEQLKSGTASVVCLLNNFYPREAKVQWKVDNALQSGNSQESVTEQDSKDSTYSLSSTLTLSKADYEKHKVYACEVTHQGLSSPVTKSFNRGECEDQVDPRLIDGK
chain: ANAFLEELRPGSLERECKEEQCSFEEAREIFKDAERTKLFWISYSDGDQCASSPCQNGGSCKDQLQSYICFCLPAFEGRNCETHKDDQLICVNENGGCEQYCSDHTGTKRSCRCHEGYSLLADGVSCTPTVEYPCGKIPILEKRNASKPQGRIVGGKVCPKGECPWQVLLLVNGAQLCGGTLINTIWVVSAAHCFDKIKNWRNLIAVLGEHDLSEHDGDEQSRRVAQVIIPSTYVPGTTNHDIALLRLHQPVVLTDHVVPLCLPERTFSERTLAFVRFSLVSGWGQLLDRGATALELMVLNVPRLMTQDCLQQSRKVGDSPNITEYMFCAGYSDGSKDSCKGDSGGPHATHYRGTWYLTGIVSWGQGCATVGHFGVYTRVSQYIEWLQKLMRSEPRPGVLLRAPFP
modifications: linker attached as sialic acid derivative to an N-linked glycan (ST3Gal-III); gamma-carboxylated Glu in the Gla domain; unpaired hinge Cys (YGPPC) coupled by maleimide to the 3 kDa PEG linker

peak thrombin generation at 25 nM, haemophilia A like platelet rich plasma [11]: ~2 fold compared to rFVIIa (25 nM)
B4: FVIIa-Fab1029 (other)
heavy: B3 heavy
light: B3 light
chain: B3 chain
modifications: linker attached as sialic acid derivative to an N-linked glycan (ST3Gal-III); gamma-carboxylated Glu in the Gla domain; unpaired hinge Cys (YGPPC) coupled by maleimide to the 10 kDa PEG linker
